Laboratory results reported in US20230105415A1 (ARIZONA BOARD OF REGENTSON BEHALF OF ARIZONA STATE …, published 2023).

Target: T1, human complement C1q (human, UniProt P02745 23-245; P02746 28-253; P02747 29-245)
T1 construct: also called human C1q
Assay: C1q binding ELISA, GnGn against wt plants (FIG. 9)

T1 sequence (P02745 23-245 limits assumed, chain 1 of 3): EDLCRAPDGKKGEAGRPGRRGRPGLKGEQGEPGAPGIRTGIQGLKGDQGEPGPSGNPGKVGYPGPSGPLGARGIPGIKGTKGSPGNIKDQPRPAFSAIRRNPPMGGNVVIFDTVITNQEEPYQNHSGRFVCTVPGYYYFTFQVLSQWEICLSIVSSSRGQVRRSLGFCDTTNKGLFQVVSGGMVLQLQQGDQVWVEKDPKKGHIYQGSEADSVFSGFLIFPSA
T1 sequence (P02746 28-253 limits assumed, chain 2 of 3): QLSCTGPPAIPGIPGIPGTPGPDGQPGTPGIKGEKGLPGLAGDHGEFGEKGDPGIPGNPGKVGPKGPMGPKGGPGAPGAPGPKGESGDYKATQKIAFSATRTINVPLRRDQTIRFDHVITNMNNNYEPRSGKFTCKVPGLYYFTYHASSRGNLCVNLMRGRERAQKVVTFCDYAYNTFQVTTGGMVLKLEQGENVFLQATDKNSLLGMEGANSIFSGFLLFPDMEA
T1 sequence (P02747 29-245 limits assumed, chain 3 of 3): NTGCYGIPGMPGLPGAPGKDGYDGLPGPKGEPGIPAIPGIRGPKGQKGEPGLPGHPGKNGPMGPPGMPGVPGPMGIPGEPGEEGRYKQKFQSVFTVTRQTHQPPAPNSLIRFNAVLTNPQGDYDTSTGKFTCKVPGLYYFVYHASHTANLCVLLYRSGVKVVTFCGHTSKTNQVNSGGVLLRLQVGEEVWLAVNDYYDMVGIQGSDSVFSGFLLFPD

B1: 6D8 antibody (full 6D8 mAb without ZE3 fusion, construct HL) (antibody)
heavy: not shown
light: DVLMTQSPLSLPVTLGQPASISCRSSQSIVHSNGNTYLEWYLQKPGQSPKLLIYKASNRFSGVPDRFSGSGSGTDFTLKISRVEAEDAGVYYCLQGSHVPSTFGGGTKVEIKTVAAPSVFIFPPSDEQLKSGTASVVCLLNNFYPREAKVQWKVDNALQSGNSQESVTEQDSKDSTYSLSSTLTLSKADYEKHKVYACEVTHQGLSSPVTKSFNRGEC
binding result: binds
